B1: VH:VL chains; a variant is named by its letters at X, in order (parent)
chain 1: QVQLVQSGAEVKKPGASVKVSCKASGYTFTDYXMHWVRQAPGQGLEWMGXVNPNXXXTTYNQKFEGRVTMTTDTSTSTAYMELRSLRSDDTAVYYCARXNXLDXWGQGTTVTVSS
chain 2: DIQMTQSPSSLSASVGDRVTITCSVSSSVSSIYLHWYQQKPGKAPKLLIYSTSNLASGVPSRFSGSGSGTDFTLTISSLQPEDFATYYCQVYSGYPLTFGGGTKVEIK

Variants of: B1
Assay: yeast display scFab, FACS + sequencing
How it was run: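 The non-specific binding call was based on sorted and sequenced yeast displaying a heavy-chain CDR mutant scFab library. Labelling used anti-Myc with biotinylated ovalbumin (260 μg/mL in PBSB, 3 h, room temperature) or soluble membrane proteins (130 μg/mL, 20 min on ice), and FACS collected the top 25% and bottom 10% of binders in two replicates. Positive meant present in ≥3 of 4 pooled positive samples and in no negatives, and negative meant the converse.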

Row | Variant | non-specific binding call
1 | VRGGGDGY | no binding
2 | FRGKGAVD | binds
3 | FRGKGAVS | binds
4 | YRGRAAVS | binds
5 | FRGGGDWD | no binding
6 | FRGKADVD | binds
7 | FRGGGSSA | binds
8 | DRGGGDAS | no binding
9 | YRGGGDSV | no binding
10 | FRGRDDWA | no binding
11 | FRGRDDVF | no binding
12 | YRGKGAWA | binds
13 | YRGKGAWY | binds
14 | YRGKGAWS | binds
15 | YRGRDDWF | no binding
16 | VRGKAAVS | binds
17 | YRGGDAAF | no binding
18 | VRGGGAWV | binds
19 | SRGGAAWA | binds
20 | FRGKGAWD | binds
21 | YRGGSDGS | no binding
22 | SRGKGSGV | binds
23 | YRGGGSAA | binds
24 | YRGGASGA | binds
25 | FRGGDYGS | binds

Row | Variant | non-specific binding call
26 | DRGGDSSS | no binding
27 | VRGKGDWV | no binding
28 | VRGKGAWA | binds
29 | VRGKGAWD | binds
30 | YRGKDAGA | binds
31 | YRGKSSVD | binds
32 | YRGGTFGF | binds
33 | YRGGDSSY | no binding
34 | YRGKSSAD | binds
35 | SRGRDAWA | binds
36 | YRGGGDWV | no binding
37 | YRGKASVD | binds
38 | YRGGSAGF | binds
39 | YRGGSAGA | binds
40 | FRGGSAVD | binds
41 | FRGGSAVY | binds
42 | VRGGSDGY | no binding
43 | YRGGASWV | binds
44 | VRGKGSGA | binds
45 | VRGKGSGF | binds
46 | VRGKGSGV | binds
47 | FRGGGSLD | binds
48 | FRGGDSAD | binds
49 | YRGKSSWA | binds
50 | VRGRDDSA | no binding

Row | Variant | non-specific binding call
51 | SRGGGVGY | binds
52 | VRGGGVGV | binds
53 | DRGGDDAD | no binding
54 | DRGGDDAA | no binding
55 | FRGKGSLA | binds
56 | FRGGGSAA | binds
57 | YRGKDSGA | binds
58 | YRGKDSGS | binds
59 | YRGGGSGS | binds
60 | YRGKGALS | binds
61 | YRGKGALA | binds
62 | YRGRASGA | binds
63 | FRGGGFVV | binds
64 | YRGGSSGY | binds
65 | VRGGGFGV | no binding
66 | VRGGGFGD | binds
67 | DRGGGDGV | no binding
68 | FRGRDDLV | no binding
69 | SRGKGDAD | no binding
70 | FRGRDAVD | binds
71 | FRGRDAVF | binds
72 | VRGGDDVF | no binding
73 | SRGGSALA | no binding
74 | FRGKGFGV | binds
75 | YRGGGAAF | binds

Row | Variant | non-specific binding call
76 | YRGGDSAY | no binding
77 | YRGGDSAS | no binding
78 | VRGKGASA | binds
79 | YRGGDDLY | no binding
80 | YRGGDDLV | no binding
81 | YRGKAAVD | binds
82 | YRGKGAAS | binds
83 | YRGKGAAF | binds
84 | DRGKNDGD | no binding
85 | YRGKAAGV | binds
86 | YRGKAAGD | binds
87 | YRGRASVV | binds
88 | DRGGSAGD | no binding
89 | VRGRDDVV | no binding
90 | VRGGDDGS | no binding
91 | VRGGDDGV | no binding
92 | YRGKGYVV | binds
93 | FRGGGSVS | binds
94 | YRGKGDGS | binds
95 | YRGKDAWS | binds
96 | YRGKDAWY | binds
97 | FRGRAAVD | binds
98 | FRGRDALY | binds
99 | ARGKASSY | no binding
100 | DRGRDDGS | no binding

Row | Variant | non-specific binding call
101 | VRGKGSLA | binds
102 | VRGGGAAV | no binding
103 | VRGGGAAY | no binding
104 | YRGGTAAA | binds
105 | YRGRDASF | no binding
106 | YRGRDASA | binds
107 | YRGRDASS | no binding
108 | YRGGDYGA | no binding
109 | YRGKDALA | binds
110 | DRGRDAGD | no binding
111 | DRGRDAGA | no binding
112 | DRGGDVSD | binds
113 | YRGGGDGF | no binding
114 | YRGRASLY | binds
115 | YRGKGFVA | binds
116 | YRGKGFVV | binds
117 | VRGKGAVD | binds
118 | VRGKGAAD | binds
119 | YRGKGSWA | binds
120 | YRGKGSWS | binds
121 | FRGGGSWA | binds

Source: the emibetuzumab library of Makowski et al. (2022)
